Values quoted from earlier work, collected in publication PMC6008173.

Target: PCDH15 EC1-2 (Mus musculus) (UniProt Q99PJ1)

## CDH23 EC1-2 (from UniProt Q99PF4)
  Kd: 3000 nM
